Reference: the Human Domainome abundance scans (Beltran et al. 2025)
± gives the uncertainty stated by the source.

B1: Neutrophil cytosol factor 2, residues 456 to 514; numbered along this chain, P19878 (parent)
chain: LKKGSQVEALFSYEATQPEDLEFQEGDIILVLSKVNEEWLEGECKGKVGIFPKVFVEDC

Variants of: B1
Experiment: abundance fitness (aPCA) (normalised: wild type 0, dead -1); higher = more abundant; growth selection in yeast, the domain comes from the species named
Conditions: Homo sapiens

Row | Variant | abundance fitness
1 | LKKGSQVEALFSYEATQPEDLEFQEGDIILVLSKVNEEWLEGECKGKVGIFPKVFVEDY | -0.204 ± 0.14
2 | LKKGSQVEALFSYEATQPEDLEFQEGDIILVLSKVNEEWLEGECKGKVGIFPKVFVEDL | -0.112 ± 0.21
3 | LKKGSQVEALFSYEATQPEDLEFQEGDIILVLSKVNEEWLEGECKGKVGIFPKVFVEDR | -0.173 ± 0.2
4 | LKKGSQVEALFSYEATQPEDLEFQEGDIILVLSKVNEEWLEGECKGKVGIFPKVFVEDV | 0.402 ± 0.14
5 | LKKGSQVEALFSYEATQPEDLEFQEGDIILVLSKVNEEWLEGECKGKVGIFPKVFVEDT | 0.289 ± 0.13
6 | LKKGSQVEALFSYEATQPEDLEFQEGDIILVLSKVNEEWLEGECKGKVGIFPKVFVEDS | -0.012 ± 0.091
7 | LKKGSQVEALFSYEATQPEDLEFQEGDIILVLSKVNEEWLEGECKGKVGIFPKVFVEDP | 0.078 ± 0.14
8 | LKKGSQVEALFSYEATQPEDLEFQEGDIILVLSKVNEEWLEGECKGKVGIFPKVFVEDN | -0.242 ± 0.18
